# Measured values published in IntAct's records for PubMed 23809763.
# B1: R-spondin-1 (Homo sapiens), Q2MKA7 (parent)
# chain: MRLGLCVVALVLSWTHLTISSRGIKGKRQRRISAEGSQACAKGCELCSEVNGCLKCSPKLFILLERNDIRQVGVCLPSCPPGYFDARNPDMNKCIKCKIEHCEACFSHNFCTKCKEGLYLHKGRCYPACPEGSSAANGTMECSSPAQCEMSEWSPWGPCSKKQQLCGFRRGSEERTRRVLHAPVGDHAACSDTKETRRCTVRRVPCPEGQKRRKGGQGRRENANRNLARKESKEAGAGSRRRKGQQQQQQQGTVGPLTSAGPA
# partner: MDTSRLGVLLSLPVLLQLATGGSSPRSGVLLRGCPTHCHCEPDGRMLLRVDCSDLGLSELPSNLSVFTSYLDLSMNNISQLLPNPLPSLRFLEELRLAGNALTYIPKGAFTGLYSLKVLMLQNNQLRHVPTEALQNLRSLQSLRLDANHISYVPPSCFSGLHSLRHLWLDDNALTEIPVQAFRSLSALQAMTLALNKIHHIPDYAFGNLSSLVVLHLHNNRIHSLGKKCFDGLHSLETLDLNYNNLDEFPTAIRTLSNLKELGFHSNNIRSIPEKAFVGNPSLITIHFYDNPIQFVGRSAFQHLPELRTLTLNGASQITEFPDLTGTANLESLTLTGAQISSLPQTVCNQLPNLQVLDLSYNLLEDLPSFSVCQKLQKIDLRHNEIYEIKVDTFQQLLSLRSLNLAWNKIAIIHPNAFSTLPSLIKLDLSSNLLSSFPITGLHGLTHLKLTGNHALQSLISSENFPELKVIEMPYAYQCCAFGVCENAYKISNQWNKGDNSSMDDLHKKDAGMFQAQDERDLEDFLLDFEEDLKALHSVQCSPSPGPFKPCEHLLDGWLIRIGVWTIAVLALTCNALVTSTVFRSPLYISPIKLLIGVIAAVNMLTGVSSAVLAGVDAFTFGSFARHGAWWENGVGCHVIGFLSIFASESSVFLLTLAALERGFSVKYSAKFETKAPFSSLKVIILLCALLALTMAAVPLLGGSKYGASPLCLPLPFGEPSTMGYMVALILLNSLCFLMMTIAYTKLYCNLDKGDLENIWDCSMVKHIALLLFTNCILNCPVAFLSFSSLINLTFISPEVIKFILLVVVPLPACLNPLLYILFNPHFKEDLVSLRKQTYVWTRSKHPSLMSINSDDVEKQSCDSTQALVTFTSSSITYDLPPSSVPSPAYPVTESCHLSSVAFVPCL
# Variants of: B1
# Settings: with lgr5_human LGR5, O75473
row,Variant,effect of a mutation on the interaction
1,G82E,with no effect
2,F106E,disrupting interaction strength
3,Q71R,with no effect
4,Q71E,with no effect
5,R70E,with no effect
6,R70C,with no effect
7,R70A,decreasing interaction strength
8,F110E,disrupting interaction strength
9,G73R,with no effect
10,G73E,with no effect
11,R66A,with no effect
12,R66W,with no effect
